The values below come from patent US20210189432A1 (UNIVERSITY OF UTAH RESEARCH FOUNDATION, published 2021).

Data set [1] deals with the molecule itself. Kind of data set: negative stain EM of purified protein (self-assembly).
Data set [2] deals with the molecule itself. The data set can be described thus: formaldehyde crosslinking in situ in HEK293 cells, western blot. (In general: A western blot detects proteins with antibodies after separation by electrophoresis.)
Experimental: Western blot samples were mixed with 4× Laemlli buffer (40% glycerol, 250 mM Tris, 4% SDS, 50 mM DTT, pH 6.8) and heated at 70° C. for 5 min. SDS-PAGE gel electrophoresis was used to separate protein samples. Separated samples were transferred to a nitrocellulose membrane (GE Healthcare). Following transfer, membranes were briefly stained with 0.1% Ponceau stain, then destained with 1% acetic acid to remove background, for imaging of total protein. […] Membranes were washed 3×10 min in 1×TBS, then incubated in an HRP-conjugated secondary antibody (Jackson ImmunoResearch) in block for 1 h at RT. After 3×10 min in 1×TBS, a chemiluminescent kit (Bio-Rad, Hercules, Calif.) was used to detect the protein bands, and the membranes were imaged on an Azure c300 gel dock (Azure Biosystems, Dublin, Calif.). Blots were analyzed and quantified using the Gel Analysis plugin in ImageJ.
Media was removed and pelleted cells were then crosslinked with 0.4% formaldehyde in PBS for 10 min with rocking at RT. Cell suspensions were immediately quenched with Tris to a final concentration of 50 mM and repelleted. […] Lysates were cleared by centrifugation at 21,000×g for 10 min at 4° C. and cleared supernatants were then run on a 4%-8% gradient gel and analyzed via western blot with antibodies for Arc (mouse monoclonal, Santa Cruz) and GFP (chicken polyclonal, Ayes).

B1: Drosophila Arc homolog dArc1 (Drosophila Arc1, NP_610955.1) (other, UniProt Q7K1U0 1-254, looked up)
chain: MAQLTQMTNEQLRELIEAVRAAAVGAAGSAAAAGGADASRGKGNFSACTHSFGGTRDHDVVEEFIGNIETYKDVEGISDENALKGISLLFYGMASTWWQGVRKEATTWKEAIALIREHFSPTKPAYQIYMEFFQNKQDDHDPIDTFVIQKRALLAQLPSGRHDEETELDLLFGLLNIKYRKHISRHSVHTFKDLLEQGRIIEHNNQEDEEQLATAKNTRGSKRTTRCTYCSFRGHTFDNCRKRQKDRQEEQHEE
As to B1, the binding result in data set [1] is “binds”.

B2: myc-Arc-WT (full-length rat WT Arc expressed in HEK293 cells) (other)
chain: MELDHMTTGGLHAYPAPRGGPAAKPNVILQIGKCRAEMLEHVRRTHRHLLTEVSKQVERELKGLHRSVGKLENNLDGYVPTGDSQRWKKSIKACLCRCQETIANLERWVKREMHVWREVFYRLERWADRLESMGGKYPVGSEPARHTVSVGVGGPEPYCQEADGYDYTVSPYAITPPPAAGELPEQESVGAQQYQSWVPGEDGQPSPGLDTQIFEDPREFLSHLEEYLRQVGGSEEYWLSQIQNHMNGPAKKWWEFKQGSVKNWVEFKKEFLQYSEGTLSREAIQRELDLPQKQGEPLDQFLWRKRDLYQTLYVDAEEEEIIQYVVGTLQPKFKRFLRHPLPKTLEQLIQRGMEVQDGLEQAAEPSVTPLPTEDETEALTPALTSESVASDRTQPE
notes: Crosslinked in situ inside transfected HEK293 cells with formaldehyde; also called WT myc-Arc; not shown: myc tag of pRK5-myc-Arc
In the case of B2, in data set [2], the binding result is “binds”.
